According to paper PMC8894380, “A multi-factor trafficking site on the spliceosome remodeling enzyme BRR2 recruits C9ORF78 to regulate alternative splicing” (Nature Communications, 2022):
Numbering of substitutions follows the chain as printed. Names may count otherwise.

T1: BRR2 C-terminal cassette (BRR2^CC, residues 1282-2136) (human, UniProt O75643 1282-2136)
T1 construct: BRR2 (SNRNP200), human, C-terminal helicase cassette, residues 1282-2136; The His10 tag is named only for the peptide SPOT array; also called His10-BRR2^CC
T1 sequence (looked up): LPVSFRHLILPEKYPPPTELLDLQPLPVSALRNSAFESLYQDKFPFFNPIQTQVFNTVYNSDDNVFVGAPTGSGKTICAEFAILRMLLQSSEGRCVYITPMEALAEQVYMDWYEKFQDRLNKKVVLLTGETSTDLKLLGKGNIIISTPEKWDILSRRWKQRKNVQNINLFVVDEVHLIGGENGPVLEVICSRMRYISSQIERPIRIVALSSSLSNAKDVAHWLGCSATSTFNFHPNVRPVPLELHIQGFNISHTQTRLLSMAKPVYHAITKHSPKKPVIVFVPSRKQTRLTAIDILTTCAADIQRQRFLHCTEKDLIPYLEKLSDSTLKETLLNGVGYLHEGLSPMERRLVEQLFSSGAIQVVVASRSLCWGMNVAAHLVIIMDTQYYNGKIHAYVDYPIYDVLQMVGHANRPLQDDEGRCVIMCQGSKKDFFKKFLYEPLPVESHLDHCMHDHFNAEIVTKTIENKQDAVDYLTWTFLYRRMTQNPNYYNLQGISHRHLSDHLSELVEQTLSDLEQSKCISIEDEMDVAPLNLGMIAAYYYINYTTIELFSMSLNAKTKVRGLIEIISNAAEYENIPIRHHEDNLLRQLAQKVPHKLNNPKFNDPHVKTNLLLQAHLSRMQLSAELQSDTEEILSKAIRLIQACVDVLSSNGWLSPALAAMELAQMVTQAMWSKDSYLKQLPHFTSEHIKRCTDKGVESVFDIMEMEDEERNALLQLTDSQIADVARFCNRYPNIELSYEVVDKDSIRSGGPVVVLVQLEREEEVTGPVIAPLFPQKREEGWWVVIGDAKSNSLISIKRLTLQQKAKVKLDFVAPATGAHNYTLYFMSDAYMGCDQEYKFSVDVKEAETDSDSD

B1: FBP21^116-376 (domain or fragment, human, UniProt O75554 116-376, looked up)
chain: KKKRKKDPSKGRWVEGITSEGYHYYYDLISGASQWEKPEGFQGDLKKTAVKTVWVEGLSEDGFTYYYNTETGESRWEKPDDFIPHTSDLPSSKVNENSLGTLDESKSSDSHSDSDGEQEAEEGGVSTETEKPKIKFKEKNKNSDGGSDPETQKEKSIQKQNSLGSNEEKSKTLKKSNPYGEWQEIKQEVESHEEVDLELPSTENEYVSTSEADGGGEPKVVFKEKTVTSLGVMADGVAPVFKKRRTENGKSRNLRQRGDDQ
B2: FBP21^200-376 (domain or fragment, human, UniProt O75554 200-376, looked up)
chain: HTSDLPSSKVNENSLGTLDESKSSDSHSDSDGEQEAEEGGVSTETEKPKIKFKEKNKNSDGGSDPETQKEKSIQKQNSLGSNEEKSKTLKKSNPYGEWQEIKQEVESHEEVDLELPSTENEYVSTSEADGGGEPKVVFKEKTVTSLGVMADGVAPVFKKRRTENGKSRNLRQRGDDQ
B3: PRPF8 Jab1 domain (PRPF8^Jab1; residues 2064-2335) (domain or fragment)
chain: not shown
notes: PRPF8, human, Jab1/MPN-like domain, residues 2064-2335; also called Jab1/MPN-like domain
B4: His6-GST-C9ORF78 (natural protein, human)
chain: MPVVRKIFRRRRGDSESEEDEQDSEEVRLKLEETREVQNLRKRPNGVSAVALLVGEKVQEETTLVDDPFQMKTGGMVDMKKLKERGKDKISEEEDLHLGTSFSAETNRRDEDADMMKYIETELKKRKGIVEHEEQKVKPKNAEDCLYELPENIRVSSAKKTEEMLSNQMLSGIPEVDLGIDAKIKNIISTEDAKARLLAEQQNKKKDSETSFVPTNMAVNYVQHNRFYHEELNAPIRRNKEEPKARPLRVGDTEKPEPERSPPNRKRPANEKATDDYHYEKFKKMNRRY
notes: C9ORF78, human, 34 kDa; Tag cleavage led to degradation and was omitted for functional analyses in vitro; also called GST-C9ORF78^wt; source: E. coli BL21 RIL (pETM30), purified (Glutathione Sepharose, SEC); not shown: His6, N-terminal, kept; GST, N-terminal, kept
B5: C9ORF78 (His6/GST tag cleaved, co-purified with BRR2^HR) (natural protein, human)
chain: B4 chain
notes: C9ORF78, human; the four N-terminal and 231 C-terminal residues not located in the map; 4 + 54 + 231 residues add up to 289, the length that I recall for the whole protein; not shown: His6, N-terminal, cleaved; GST, N-terminal, cleaved
B6: GST-C9ORF78^F8A (natural protein, human)
chain: B4 chain with F8A
notes: C9ORF78, human, with F8A; source: E. coli BL21 RIL (pETM30), purified (Glutathione Sepharose, SEC); not shown: His6, N-terminal, kept; GST, N-terminal, kept

Experiments:
Settings in all cases: both partners purified
[1] = molecular target: T2, BRR2^HR-PRPF8^Jab1 complex (human, UniProt O75643 395-2129; Q6P2Q9 2064-2335); experiment: SEC; competition: BRR2^HR with equimolar PRPF8^Jab1 and FBP21^116-376 10 min on ice, then with or without equimolar GST-C9ORF78 for 10 min; analytical SEC as above
T2 construct: PRPF8, human, Jab1/MPN-like domain, residues 2064-2335; source: purified BRR2^HR and PRPF8^Jab1 mixed in equimolar amounts

[2] = molecular target: T3, BRR2 helicase region (BRR2^HR, residues 395-2129) (human, UniProt O75643 395-2129); experiment: cryo-EM structure; complexes purified by SEC, 20 mM Tris-HCl pH 8.0, 150 mM NaCl, 1 mM DTT, 5 mg/ml, 0.15% n-octylglucoside; Titan Krios 300 kV
T3 construct: For the cryoEM complex with C9ORF78 the co-purified proteins were treated with TEV protease and recycled on Ni-NTA; also called His10-BRR2^HR; source: insect cells
T3 sequence (O75643 395-2129): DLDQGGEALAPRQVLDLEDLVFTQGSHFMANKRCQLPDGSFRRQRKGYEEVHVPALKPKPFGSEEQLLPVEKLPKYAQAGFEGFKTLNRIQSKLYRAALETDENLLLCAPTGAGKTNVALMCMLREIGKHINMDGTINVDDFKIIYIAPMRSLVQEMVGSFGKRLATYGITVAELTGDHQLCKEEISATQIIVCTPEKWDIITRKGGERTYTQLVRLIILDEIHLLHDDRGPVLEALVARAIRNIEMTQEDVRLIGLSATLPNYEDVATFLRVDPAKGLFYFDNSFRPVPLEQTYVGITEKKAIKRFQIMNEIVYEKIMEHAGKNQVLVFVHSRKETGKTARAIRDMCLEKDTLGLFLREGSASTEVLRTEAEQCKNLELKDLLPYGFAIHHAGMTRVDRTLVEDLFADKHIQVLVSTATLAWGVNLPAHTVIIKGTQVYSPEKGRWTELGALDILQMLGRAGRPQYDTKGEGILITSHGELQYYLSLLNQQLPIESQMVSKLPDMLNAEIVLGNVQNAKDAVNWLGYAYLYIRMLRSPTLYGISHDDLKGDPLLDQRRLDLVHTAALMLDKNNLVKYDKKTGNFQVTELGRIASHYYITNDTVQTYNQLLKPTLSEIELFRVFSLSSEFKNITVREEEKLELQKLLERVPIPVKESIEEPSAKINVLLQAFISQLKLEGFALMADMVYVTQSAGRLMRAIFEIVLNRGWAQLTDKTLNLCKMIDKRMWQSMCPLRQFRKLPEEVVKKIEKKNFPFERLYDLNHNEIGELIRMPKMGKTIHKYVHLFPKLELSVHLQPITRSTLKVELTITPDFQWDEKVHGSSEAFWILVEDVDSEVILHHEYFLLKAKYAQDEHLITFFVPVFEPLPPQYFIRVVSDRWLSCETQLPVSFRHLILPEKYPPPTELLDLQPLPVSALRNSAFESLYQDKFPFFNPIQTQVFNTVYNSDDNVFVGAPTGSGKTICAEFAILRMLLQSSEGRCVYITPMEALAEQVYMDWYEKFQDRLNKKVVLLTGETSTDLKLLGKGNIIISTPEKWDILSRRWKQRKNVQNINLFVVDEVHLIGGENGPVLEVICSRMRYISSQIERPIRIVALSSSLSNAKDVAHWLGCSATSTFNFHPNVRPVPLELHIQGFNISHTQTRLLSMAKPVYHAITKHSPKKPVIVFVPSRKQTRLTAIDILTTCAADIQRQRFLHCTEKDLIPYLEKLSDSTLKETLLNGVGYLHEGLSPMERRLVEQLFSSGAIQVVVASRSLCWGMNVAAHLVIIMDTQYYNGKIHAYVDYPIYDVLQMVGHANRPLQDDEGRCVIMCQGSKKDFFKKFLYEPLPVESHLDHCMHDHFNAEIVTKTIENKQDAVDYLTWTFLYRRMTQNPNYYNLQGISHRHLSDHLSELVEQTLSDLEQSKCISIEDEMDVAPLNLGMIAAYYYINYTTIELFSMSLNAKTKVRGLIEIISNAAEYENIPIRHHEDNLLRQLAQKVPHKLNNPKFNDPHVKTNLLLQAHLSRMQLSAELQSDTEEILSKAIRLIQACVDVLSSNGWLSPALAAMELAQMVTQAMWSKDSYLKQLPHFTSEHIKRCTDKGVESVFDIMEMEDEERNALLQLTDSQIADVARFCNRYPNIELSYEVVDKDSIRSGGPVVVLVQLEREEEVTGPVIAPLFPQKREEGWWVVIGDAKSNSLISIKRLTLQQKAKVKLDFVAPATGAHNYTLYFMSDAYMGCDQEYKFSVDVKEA

[3] = molecular target: T3, BRR2 helicase region (BRR2^HR, residues …); experiment: SEC; analytical SEC, Superdex 200 increase 3.2/300, 20 mM Tris-HCl pH 8.0, 200 mM NaCl, 1 mM DTT; 75 ug BRR2 construct or PRPF8^Jab1 with 1.5-fold molar excess of partner, pre-incubated 10 min on ice; fractions by SDS-PAGE
[4] = molecular target: T4, full-length BRR2 (BRR2^FL) (human, UniProt O75643 1-2136); experiment: as above
T4 construct: BRR2 (SNRNP200), human, full length; The His10 tag is named only for the peptide SPOT array; also called His10-BRR2^FL; SNRNP200

[5] = molecular target: T1, BRR2 C-terminal cassette (BRR2^CC, …); experiment: as above

Row | Binder | binding result [1] | binding result [2] | binding result [3] | also measured
1 | B1 | binds | – | – | –
2 | B2 | – | binds | – | –
3 | B3 | – | – | binds | –
4 | B4 | binds | – | binds | binding result [4]: binds; binding result [5]: binds
5 | B5 | – | binds | – | –
6 | B6 | – | – | binds | –
